Molecular target: recombinant Actinobacillus pleuropneumoniae serotype 7 60 kDa transferrin binding protein (Actinobacillus pleuropneumoniae serotype 7 strain AP205)
Assay: competitive ELISA, 50% inhibition value, solid phase porcine transferrin

| Substance | IC50 |
| --- | --- |
| porcine TF, NH2-terminus (from UniProt P09571) (ligand) | 20 µg/mL |
| human apotransferrin (from UniProt P02787) (ligand) | > 1000 µg/mL |
| bovine transferrin, iron replete (from UniProt Q29443) (ligand) | > 1000 µg/mL |
| porcine apotransferrin (from UniProt P09571) (ligand) | 150 µg/mL |
| bovine apotransferrin (from UniProt Q29443) (ligand) | > 1000 µg/mL |
| human transferrin, iron replete (from UniProt P02787) (ligand) | > 1000 µg/mL |

Molecular target: recombinant Actinobacillus pleuropneumoniae serotype 7 60 kDa transferrin binding protein (Actinobacillus pleuropneumoniae serotype 7 strain AP205)
Assay: competitive ELISA, 50% inhibition value; competitor preincubated with the recombinant 60 kDa protein, solid phase porcine transferrin

| Substance | IC50 |
| --- | --- |
| porcine transferrin (TF), iron replete (from UniProt P09571) (ligand) | 25 µg/mL |
